Test results published in article PMC6588604.

Biological target: NLuc-GhBOP1 (Gossypium hirsutum)

GUS staining intensity from GhPR1pro:GUS in tobacco leaves: 35S:GhTGA3 + 35S:GhBOP1 + reporter against 35S:GhTGA3 + reporter: 2 fold
Substance: CLuc-GhTGA3 (natural protein)
